Source: patent publication US20250327097A1, “ORGANISMS PRODUCING LESS CROTONIC ACID” (Global Bioenergies, priority 2021, published 2025)

B1: I283T-P284D-N287P-S322T-N388M-C430N-L432F-L434W-S436N-H461A-dG462-A463T-S465V (protein)
chain: MFLKSLREQINLLKRQGDLRIINRPVDSYLEAAAIIRRSTETKAPVPLMTNIKGYPGCSIVGGLAALSSNPEYPLSRVAMSLGLSTTASAQSIVQYLIDGLKKTPYLPVEIDSNSAPCKQNILRGEDASLAHFPIPQVHQHDGNRYVNTWGVFIVESPDGQWCNWSIQRVQYLNDRQMIALVFPSQHISDIWEEWVKIGKPMPYALVQGCEPIVPYIAGLPLLERNVNEAEYIGALYGKGIEVVKCETHDLRVPASSEVVIEGYFAITREGVEGPFGEFAGYTDNEPSLQPILSITAISWQDDPIWPVVAEGKPVDEYHTCTGIGDAAAIQNVLLTANLPVSFVWVPLYSACHLMIVSINRHWRQTHPDLTSEQLTKKVGDVIHQTRMSIKLPKIVVLDDDVDPADTESLLWALATRIHPERKRYFYESNIFPWLNCYSEEERHNRKGKRVIIDALLPENAGTIVSFDYAYPDDIKQRVLMHWETDFSHD
B2: I283T-P284D-N287P-S322T-N388M-C430N-L432F-L434W-S436N-H461Y-dG462-A463T-S465V (protein)
chain: MFLKSLREQINLLKRQGDLRIINRPVDSYLEAAAIIRRSTETKAPVPLMTNIKGYPGCSIVGGLAALSSNPEYPLSRVAMSLGLSTTASAQSIVQYLIDGLKKTPYLPVEIDSNSAPCKQNILRGEDASLAHFPIPQVHQHDGNRYVNTWGVFIVESPDGQWCNWSIQRVQYLNDRQMIALVFPSQHISDIWEEWVKIGKPMPYALVQGCEPIVPYIAGLPLLERNVNEAEYIGALYGKGIEVVKCETHDLRVPASSEVVIEGYFAITREGVEGPFGEFAGYTDNEPSLQPILSITAISWQDDPIWPVVAEGKPVDEYHTCTGIGDAAAIQNVLLTANLPVSFVWVPLYSACHLMIVSINRHWRQTHPDLTSEQLTKKVGDVIHQTRMSIKLPKIVVLDDDVDPADTESLLWALATRIHPERKRYFYESNIFPWLNCYSEEERHNRKGKRVIIDALLPENYGTIVSFDYAYPDDIKQRVLMHWETDFSHD
B3: I283T-P284D-N287P-S322T-N388M-C430N-L432F-L434W-S436N-H461V-dG462-A463T-S465V (protein)
chain: MFLKSLREQINLLKRQGDLRIINRPVDSYLEAAAIIRRSTETKAPVPLMTNIKGYPGCSIVGGLAALSSNPEYPLSRVAMSLGLSTTASAQSIVQYLIDGLKKTPYLPVEIDSNSAPCKQNILRGEDASLAHFPIPQVHQHDGNRYVNTWGVFIVESPDGQWCNWSIQRVQYLNDRQMIALVFPSQHISDIWEEWVKIGKPMPYALVQGCEPIVPYIAGLPLLERNVNEAEYIGALYGKGIEVVKCETHDLRVPASSEVVIEGYFAITREGVEGPFGEFAGYTDNEPSLQPILSITAISWQDDPIWPVVAEGKPVDEYHTCTGIGDAAAIQNVLLTANLPVSFVWVPLYSACHLMIVSINRHWRQTHPDLTSEQLTKKVGDVIHQTRMSIKLPKIVVLDDDVDPADTESLLWALATRIHPERKRYFYESNIFPWLNCYSEEERHNRKGKRVIIDALLPENVGTIVSFDYAYPDDIKQRVLMHWETDFSHD
B4: I283T-P284D-N287P-S322T-N388M-E421V-R422F-C430N-L432F-L434W-S436N-dG462 (protein)
chain: MFLKSLREQINLLKRQGDLRIINRPVDSYLEAAAIIRRSTETKAPVPLMTNIKGYPGCSIVGGLAALSSNPEYPLSRVAMSLGLSTTASAQSIVQYLIDGLKKTPYLPVEIDSNSAPCKQNILRGEDASLAHFPIPQVHQHDGNRYVNTWGVFIVESPDGQWCNWSIQRVQYLNDRQMIALVFPSQHISDIWEEWVKIGKPMPYALVQGCEPIVPYIAGLPLLERNVNEAEYIGALYGKGIEVVKCETHDLRVPASSEVVIEGYFAITREGVEGPFGEFAGYTDNEPSLQPILSITAISWQDDPIWPVVAEGKPVDEYHTCTGIGDAAAIQNVLLTANLPVSFVWVPLYSACHLMIVSINRHWRQTHPDLTSEQLTKKVGDVIHQTRMSIKLPKIVVLDDDVDPADTESLLWALATRIHPVFKRYFYESNIFPWLNCYSEEERHNRKGKRVIIDALLPENHGAISSFDYAYPDDIKQRVLMHWETDFSHD
B5: I283T-P284D-N287P-S322T-N388M-E421V-C430N-L432F-L434W-S436N-H461T-dG462 (protein)
chain: MFLKSLREQINLLKRQGDLRIINRPVDSYLEAAAIIRRSTETKAPVPLMTNIKGYPGCSIVGGLAALSSNPEYPLSRVAMSLGLSTTASAQSIVQYLIDGLKKTPYLPVEIDSNSAPCKQNILRGEDASLAHFPIPQVHQHDGNRYVNTWGVFIVESPDGQWCNWSIQRVQYLNDRQMIALVFPSQHISDIWEEWVKIGKPMPYALVQGCEPIVPYIAGLPLLERNVNEAEYIGALYGKGIEVVKCETHDLRVPASSEVVIEGYFAITREGVEGPFGEFAGYTDNEPSLQPILSITAISWQDDPIWPVVAEGKPVDEYHTCTGIGDAAAIQNVLLTANLPVSFVWVPLYSACHLMIVSINRHWRQTHPDLTSEQLTKKVGDVIHQTRMSIKLPKIVVLDDDVDPADTESLLWALATRIHPVRKRYFYESNIFPWLNCYSEEERHNRKGKRVIIDALLPENTGAISSFDYAYPDDIKQRVLMHWETDFSHD
B6: N388M-K394R-C430N-L432F-L434W-S436N-H444V (protein)
chain: MFLKSLREQINLLKRQGDLRIINRPVDSYLEAAAIIRRSTETKAPVPLMTNIKGYPGCSIVGGLAALSSNPEYPLSRVAMSLGLSTTASAQSIVQYLIDGLKKTPYLPVEIDSNSAPCKQNILRGEDASLAHFPIPQVHQHDGNRYVNTWGVFIVESPDGQWCNWSIQRVQYLNDRQMIALVFPSQHISDIWEEWVKIGKPMPYALVQGCEPIVPYIAGLPLLERNVNEAEYIGALYGKGIEVVKCETHDLRVPASSEVVIEGYFAITREGVEGPFGEFAGYIPNENSLQPILSITAISWQDDPIWPVVAEGKPVDEYHTCSGIGDAAAIQNVLLTANLPVSFVWVPLYSACHLMIVSINRHWRQTHPDLTSEQLTKKVGDVIHQTRMSIKLPRIVVLDDDVDPADTESLLWALATRIHPERKRYFYESNIFPWLNCYSEEERVNRKGKRVIIDALLPENHGAISSFDYAYPDDIKQRVLMHWETDFSHD
B7: I283T-P284D-N287P-S322T-N388M-E421V-C430N-L432F-L434W-S436N-H461V-dG462 (protein)
chain: MFLKSLREQINLLKRQGDLRIINRPVDSYLEAAAIIRRSTETKAPVPLMTNIKGYPGCSIVGGLAALSSNPEYPLSRVAMSLGLSTTASAQSIVQYLIDGLKKTPYLPVEIDSNSAPCKQNILRGEDASLAHFPIPQVHQHDGNRYVNTWGVFIVESPDGQWCNWSIQRVQYLNDRQMIALVFPSQHISDIWEEWVKIGKPMPYALVQGCEPIVPYIAGLPLLERNVNEAEYIGALYGKGIEVVKCETHDLRVPASSEVVIEGYFAITREGVEGPFGEFAGYTDNEPSLQPILSITAISWQDDPIWPVVAEGKPVDEYHTCTGIGDAAAIQNVLLTANLPVSFVWVPLYSACHLMIVSINRHWRQTHPDLTSEQLTKKVGDVIHQTRMSIKLPKIVVLDDDVDPADTESLLWALATRIHPVRKRYFYESNIFPWLNCYSEEERHNRKGKRVIIDALLPENVGAISSFDYAYPDDIKQRVLMHWETDFSHD
B8: I283T-P284D-N287P-S322T-N388M-E421V-C430N-L432F-L434W-S436N-dG462-A463T (protein)
chain: MFLKSLREQINLLKRQGDLRIINRPVDSYLEAAAIIRRSTETKAPVPLMTNIKGYPGCSIVGGLAALSSNPEYPLSRVAMSLGLSTTASAQSIVQYLIDGLKKTPYLPVEIDSNSAPCKQNILRGEDASLAHFPIPQVHQHDGNRYVNTWGVFIVESPDGQWCNWSIQRVQYLNDRQMIALVFPSQHISDIWEEWVKIGKPMPYALVQGCEPIVPYIAGLPLLERNVNEAEYIGALYGKGIEVVKCETHDLRVPASSEVVIEGYFAITREGVEGPFGEFAGYTDNEPSLQPILSITAISWQDDPIWPVVAEGKPVDEYHTCTGIGDAAAIQNVLLTANLPVSFVWVPLYSACHLMIVSINRHWRQTHPDLTSEQLTKKVGDVIHQTRMSIKLPKIVVLDDDVDPADTESLLWALATRIHPVRKRYFYESNIFPWLNCYSEEERHNRKGKRVIIDALLPENHGTISSFDYAYPDDIKQRVLMHWETDFSHD
B9: I283T-P284D-N287P-S322T-N388M-R422F-C430N-L432F-L434W-S436N-H461T-dG462 (protein)
chain: MFLKSLREQINLLKRQGDLRIINRPVDSYLEAAAIIRRSTETKAPVPLMTNIKGYPGCSIVGGLAALSSNPEYPLSRVAMSLGLSTTASAQSIVQYLIDGLKKTPYLPVEIDSNSAPCKQNILRGEDASLAHFPIPQVHQHDGNRYVNTWGVFIVESPDGQWCNWSIQRVQYLNDRQMIALVFPSQHISDIWEEWVKIGKPMPYALVQGCEPIVPYIAGLPLLERNVNEAEYIGALYGKGIEVVKCETHDLRVPASSEVVIEGYFAITREGVEGPFGEFAGYTDNEPSLQPILSITAISWQDDPIWPVVAEGKPVDEYHTCTGIGDAAAIQNVLLTANLPVSFVWVPLYSACHLMIVSINRHWRQTHPDLTSEQLTKKVGDVIHQTRMSIKLPKIVVLDDDVDPADTESLLWALATRIHPEFKRYFYESNIFPWLNCYSEEERHNRKGKRVIIDALLPENTGAISSFDYAYPDDIKQRVLMHWETDFSHD
B10: I283T-P284D-N287P-S322T-N388M-R422F-C430N-L432F-L434W-S436N-H461V-dG462 (protein)
chain: MFLKSLREQINLLKRQGDLRIINRPVDSYLEAAAIIRRSTETKAPVPLMTNIKGYPGCSIVGGLAALSSNPEYPLSRVAMSLGLSTTASAQSIVQYLIDGLKKTPYLPVEIDSNSAPCKQNILRGEDASLAHFPIPQVHQHDGNRYVNTWGVFIVESPDGQWCNWSIQRVQYLNDRQMIALVFPSQHISDIWEEWVKIGKPMPYALVQGCEPIVPYIAGLPLLERNVNEAEYIGALYGKGIEVVKCETHDLRVPASSEVVIEGYFAITREGVEGPFGEFAGYTDNEPSLQPILSITAISWQDDPIWPVVAEGKPVDEYHTCTGIGDAAAIQNVLLTANLPVSFVWVPLYSACHLMIVSINRHWRQTHPDLTSEQLTKKVGDVIHQTRMSIKLPKIVVLDDDVDPADTESLLWALATRIHPEFKRYFYESNIFPWLNCYSEEERHNRKGKRVIIDALLPENVGAISSFDYAYPDDIKQRVLMHWETDFSHD

The molecules below were run on 3-methylcrotonic acid.
Assay type: biochemical, Yersinia frederiksenii
Parameters: key: “+” representing a low increase in activity; “++++” representing a high increase in activity
For B1, the “Activity relative to WT” value was “++++”. With B2 the “Activity relative to WT” value was “++++”. For B3, the “Activity relative to WT” value was “++++”. For B4, the “Activity relative to WT” value was “++++”. In the case of B5, the “Activity relative to WT” value is reported as “++++”. In the case of B6, the “Activity relative to WT” value is reported as “+”. In the case of B7, the “Activity relative to WT” value is reported as “++++”. For B8, the “Activity relative to WT” value was “++++”. B9 was tested, and the “Activity relative to WT” value was “++++”. For B10, the “Activity relative to WT” value was “++++”.
